# Biological target: T1, human CD3 expressed on cells (Jurkat, a CD3+ human T-cell line; human T cells) (human, UniProt P07766 23-126; P04234 22-100)
# T1 chain 1: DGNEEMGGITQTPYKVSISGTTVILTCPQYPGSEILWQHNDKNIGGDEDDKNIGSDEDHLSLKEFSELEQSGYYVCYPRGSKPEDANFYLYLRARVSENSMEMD
# T1 chain 2: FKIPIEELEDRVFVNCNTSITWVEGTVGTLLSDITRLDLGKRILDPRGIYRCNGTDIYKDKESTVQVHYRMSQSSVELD
# Test: cell-based or functional assay
row,Binder,U937 Cytotoxicity Human T-cells [M] (EC50)
1,"H2M3541N (antibody, mouse IgG2, V domains shown) VH: EVQLVESGGGLVRPGRSLRLSCAASGFTFDDYTMHWVRQAPGKGLEWVSDISWNSGTIGYADSVKGRFTISRDNAKNSLYLQMNSLRPEDTALYYCAKDMSGYAHYYYYGMDVWGQGTTVTVSS VL: not shown",5.39e-11
2,"H1M3542N (antibody, mouse IgG1, V domains shown) VH: EVQLVESGGGLVQPGRSLRLSCVASGFPFADYTMHWVRQAPGKGLEWVSDISWNSGSKGYADSVKGRFTISRDNAKNSLYLQMNSLRTEDTAFYYCAKDMSGYAHYFYYGMDVWGQGTTVTVSS VL: not shown",2.92e-11
3,"H2M3547N (antibody, mouse IgG2, V domains shown) VH: EAQLVESGGGLVQPGRSLRLSCTTSGFTFDDYTMHWVRQAPGKGLEWISDISWNGGTKGYADSVKGRFTISRDNAKNSLYLQMDSLRGEDTALYYCVKDKSGYGHFYFGLDVWGQGTTVTVSS VL: DIQMTQSPSSLTASVGDRVTFTCRASQSISRHLSWYQQKPGKAPKLLIYAASSLESGVPSRFSGSGSGTDFTLTISSLHPEDFATYYCQQSYSNPPITFGQGTRLEIK",3.17e-11
4,"H2M3540N (antibody, mouse IgG2, V domains shown) VH: QVHLEESGGGVVQPGRSLRLSCSASGFTFSSYAMHWVRQAPGKGLEWVAVIWYDGTNKYYLDSVKGRFTISRDNSKNTLFLQMNSLRAEDTAVYYCARDRGSIITHWGQGTLVTVSS VL: DIQMTQSPSSLSASIGDRVTITCRASQNISSYLNWYQQKPGKAPKLLIYAASSLQSGVPSRFSGSGSGTDFTLTISSLQPEDFATYYCQQTYSTPPITFGQGTRLEIK",1.25e-11
5,"H2M3543N (antibody, mouse IgG2, V domains shown) VH: EVQLVESGGGLVQPGRSLRLSCAASGFTFDDYTMHWVRQAPGKGLEWVSDISWNSGSIGYADSVKGRFTVSRDNAKNSLYLQMNSLRGEDTALYYCAKDMSGYAHYGYYGMDVWGQGTTVTVSS VL: DIQMTQSPSSLSASVGDRVTITCRASQSIRNYLNWYQQKPGKVPKLLIYAASSLQSGVPSRFSGSGSGTDFTLTISSLQPEDFATYYCQQSYSNPPITFGQGTRLEIK",1.31e-11
6,"H2M2690N (antibody, mouse IgG2, V domains shown) VH: EVQLVESGGGLVQPGRSLRLSCAASGFTFDDYTMHWVRQAPGKGLEWVSGISWNSGSIGYADSVKGRFTISRDNAKKSLYLQMNSLRAEDTALYYCAKDNSGYGHYYYGMDVWGQGTTVTVAS VL: EIVMTQSPATLSVSPGERATLSCRASQSVSSNLAWYQQKPGQAPRLLIYGASTRATGIPARFSGSGSGTEFTLTISSLQSEDFAVYYCQHYINWPLTFGGGTKVEIK",2.79e-11
7,"H2M2691N (antibody, mouse IgG2, V domains shown) VH: EVQLVESGGGLVQPGRSLRLSCAASGFTFDDYTMHWVRQAPGKGLEWVSGISWNSGSIGYADSVKGRFTISRDNAKKSLYLQMNSLRAEDTALYYCAKDNSGYGHYYYGMDVWGQGTTVTVAS VL: EIVMTQSPATLSVSPGERATLSCRASQSVSSNLAWYQQKPGQAPRLLIYGASTRATGIPARFSGSGSGTEFTLTISSLQSEDFAVYYCQHYINWPLTFGGGTKVEIK",2.34e-11
8,"H2M2862N (antibody, mouse IgG2, V domains shown) VH: QVQLVESGGGVVQPGRSLRLSCAASGFTFRSYGMHWVRQAPGKGLEWVAMIYYDGNNKKYADSVRGRFTISRDNSKNTLYLQMNSLRVEDTAVYFCARGPGYNWLDPWGQGTLVTVSS VL: EIVMTQSPATLSVSPGERATLSCRASQSVSRNLAWYQQKPGQAPRLLIYGASTRATDIPARFSGSGSGTEFILNISSLQSEDFALYYCQQYSNWPLTFGGGTEVEIK",7.66e-12
9,"H1M2692N (antibody, mouse IgG1, V domains shown) VH: EVQLVESGGGLVQPGGSLRLSCAASGFSFDDYTMHWVRQPPGKGLEWVSGISWNSGSIGYADSVKGRFTISRDNAKNSLYLQMNSLRAGDTALYYCAKDNSGYGYYYYYGMDVWGQGTTVTVSS VL: EIVMTQSPATLSVSPGERATLSCRASQSVSSNLAWYQQKPGQAPRLLIYGASTRATGIPARFSGSGSGTEFTLTISSLQSEDFAVYYCQQYYNWPLTFGGGTKVEIK",3.59e-10
10,"H2M2706N (antibody, mouse IgG2, V domains shown) VH: QVQLVESGGGVVQPGRSLRLSCAASGFTFRSYAMHWVRQAPGKGLEWVAMVYYDGNNQYYADSVRGRFTISRDNSKNTLYLQMNSLRADDTAVYFCARGPGYNWLDPWGQGTLVTVSS VL: EIVMTQSPATLSVSPGERATLSCRASQSVSRNLAWYQQKPGQAPRLLIYGASTRATGIPARFSGSGSGTDFTLTISSLQSEDFAVYYCQQYNNWPLTFGGGTKVVIK",7.91e-12
11,"H2M2707N (antibody, mouse IgG2, V domains shown) VH: QVQLVESGGGVVQPGRSLRLSCIASGFTFRSYGMHWVRQAPGKGLEWVAMIYYDGNNKYYADSVRGRFTISRDNSKNTLYLQMNSLRADDTAVYFCARGPGYNWLDPWGQGTLVTVSS VL: EIVMTQSPATLSVSPGERATLSCRASQSVSSNLAWYQQKPGQAPRLLIYGASTRATGIPARFSGSGSGTEFTLTISSLQSEDFAVYYCQQYNNRPLTFGGGTKVEIK",7.21e-12
12,"H2M2777N (antibody, mouse IgG2, V domains shown) VH: QVQLVESGGGVVQPGRSLRLSCIASGFTFRSYGMHWVRQAPGKGLEWVAMIYYDGNNKYYADSVRGRFTISRDNSKNTLYLQMNSLRADDTAVYFCARGPGYNWLDPWGQGTLVTVSS VL: EIVMTQSPATLSVSPGERATLSCRASQSVSSNLAWYQQKPGQAPRLLIYGASTRATGIPARFSGSGSGTEFTLTISSLQSEDFAVYYCQQYNNRPLTFGGGTKVEIK",4.86e-12
13,"H1M2712N (antibody, mouse IgG1, V domains shown) VH: EVQLVESGGGLVQPGGSLRLSCAATGFTFDDFTMHWVRQAPGKGLEWVSGISWNSGSIGYVDSVKGRFTISRDNAKNSLYLQMNSLRAEDTALYYCAKDNSGYGYYYYGMDVWGQGTTVTVSS VL: EIVMTQSPATLSVSPGERATLSCRASHSVSRNSAWYQQKPGQAPRLLIYGASTRATGIPARFSGSGSGTEFTLTISSLQSEDFAIYYCQQYNNWPLTFGGGTKVEIK",3.14e-10
14,"H2M2774N (antibody, mouse IgG2, V domains shown) VH: QVQLVESGGGVVQPGRSLRLSCVASGFTFRSYGMHWVRQAPGKGLQWVAMIYYDGKNKYYADSVRGRFTISRDNSKNTLYLQMNSLRAEDTAMYFCARGPGYNWLDPWGQGTLVTVSS VL: EIVMTQSPATLSVSPGERATLSCRASQRISSNLAWYQQKPGQAPRLLIYGASTRATGSPARFSGSGSGTEFTLTISSLQSEDVAVYYCQQHNNWPLTFGGGTKVEIK",2.46e-12
15,"H2M2779N (antibody, V domains shown) VH: EVQLVESGGGLVQPGGSLRLSCAATGFTFDDFTMHWVRQAPGKGLEWVSGISWNSGSIGYVDSVKGRFTISRDNAKNSLYLQMNSLRAEDTALYYCAKDNSGYGYYYYGMDVWGQGTTVTVSS VL: not shown",6.75e-10
16,"H2M2708N (antibody, mouse IgG2, V domains shown) VH: QVQLVESGGGVVQPGRSLRLSCAASGFTFRSFGMHWVRQAPGRGLEWVAMIYFDGKNKYYADSVRGRFTISRDNSKNTLYLEMSSLRAEDTAVYFCARGPGYNWLDPWGQGTLVTVSS VL: EIVMTQSPATLSVSPGERVTLSCRASQSISRNLAWYQQKPGQAPRLLIYGASTRATGVPARFSGSGSGTEFTLTISSLQSEDFAVFHCQQYNNRPLTFGGGTEVEIK",3.27e-12
17,"H2M2775N (antibody, mouse IgG2, V domains shown) VH: QVQLVESGGGVVQPGRSLRLSCAASGFTFRSFGMHWVRQAPGRGLEWVAMIYFDGKNKYYADSVRGRFTISRDNSKNTLYLEMSSLRAEDTAVYFCARGPGYNWLDPWGQGTLVTVSS VL: EIVMTQSPATLSVSPGERVILSCRASQSISRNLAWYQQKPGQAPRLLIYGATTRATGVPARFSGSGSGTEFTLTISSLQSEDFAVFYCQQYNNRPLTFGGGTEVEIK",3.38e-12
18,"H2M2711N (antibody, V domains shown) VH: QVQLVESGGGVVQPGRSLRLSCAASGFTFRSFGMHWVRQAPGRGLEWVAMIYFDGKNKYYADSVRGRFTISRDNSKNTLYLEMSSLRAEDTAVYFCARGPGYNWLDPWGQGTLVTVSS VL: EIVMTQSPATLSVSPGERATLSCRASQSVSRNLAWYQQKPGQAPRLLIYGASTRATGVPARFSGSGSGTEFTLTISSLQSEDFAVFHCQQYNNRPLTFGGGTEVEIK",3.66e-12
19,"H2M2886N (antibody, mouse IgG2, V domains shown) VH: QVQLVESGGGVVQPGRSLRLSCAASGFTFRSFGMHWVRQAPGRGLEWVAMIYFDGKNKYYADSVRGRFTISRDNSKNTLYLEMSSLRAEDTAVYFCARGPGYNWLDPWGQGTLVTVSS VL: EIVMTQSPATLSVSPGERVILSCRASQSISRNLAWYQQKPGQAPRLLIYGATTRATGVPARFSGSGSGTEFTLTISSLQSEDFAVFYCQQYNNRPLTFGGGTEVEIK",8.06e-12
20,"H2M2710N (antibody, V domains shown) VH: QVQLVESGGGVVQPGRSLRLSCAASGFTFRSFGMHWVRQAPGRGLEWVAMIYFDGKNKYYADSVRGRFTISRDNSKNTLYLEMSSLRAEDTAVYFCARGPGYNWLDPWGQGTLVTVSS VL: EIVMTQSPATLSVSPGERATLSCRASQSVSRNLAWYQQKPGQAPRLLIYGASTRATGVPARFSGSGSGTEFTLTISSLQSEDFAVFHCQQYNNRPLTFGGGTEVEIK",3.97e-12
21,"H2M2885N (antibody, mouse IgG2, V domains shown) VH: QVQLVESGGGVVQPGRSLRLSCAASGFTFRSFGMHWVRQAPGRGLEWVAMIYFDGKNKYYADSVRGRFTISRDNSKNTLYLEMSSLRAEDTAVYFCARGPGYNWLDPWGQGTLVTVSS VL: EIVMTQSPATLSVSPGERVILSCRASQSISRNLAWYQQKPGQAPRLLIYGATTRATGVPARFSGSGSGTEFTLTISSLQSEDFAVFYCQQYNNRPLTFGGGTEVEIK",3.71e-12

# — patent publication US20260132200A1 (Regeneron, published 2026)
